Laboratory results published in PMC5736782, “The Differential Absorption of a Series of P-Glycoprotein Substrates in Isolated Perfused Lungs from Mdr1a/1b Genetic Knockout Mice can be Attributed to Distinct Physico-Chemical Properties: an Insight into Predicting Transporter-Mediated, Pulmonary Specific Disposition” (Pharmaceutical Research, 2017).

Legend:
[1] = system: CN1CCC[C@@H]1Cc1c[nH]c2ccc(CCS(=O)(=O)c3ccccc3)cc12; assay: purified protein, by the assay type; conditions: other: ATPase, 0–300 μM, 30 min, 37°C
[2] = system: CC[C@@]1([C@@H]2O[C@@H]([C@H]3O[C@@](O)(CO)[C@H](C)C[C@@H]3C)C[C@@H]2C)CC[C@H]([C@]2(C)CC[C@]3(C[C@H](O)[C@@H](C)[C@@H]([C@@H](C)[C@@H](OC)[C@H](C)C(=O)O)O3)O2)O1; assay: purified protein, by the assay type; conditions: other: ATPase, 0–300 μM, 30 min, 37°C
Excerpt: The Gentest ATPase assay (Corning, Germany) was used to investigate the binding kinetics of the panel of P-gp substrates against membranes constituted to display human MDR1, mouse Mdr1a, mouse Mdr1b and mouse Bcrp. The assays measure the accumulation of inorganic phosphate (absorbance at 800 nm) produced in the breakdown of ATP to ADP. […] The assays were used in accordance with the manufacturer’s protocol to calculate (GraphPad Prism) the Michaelis-Menten parameters Km and VMAX. For the assay test compounds were serially diluted to produce an assay concentration range of 0–300 μM with the kinetics of ATP turnover examined over 30 min at 37°C.

Sequence of mouse Mdr1a (Mus musculus) (chain, as listed by the source): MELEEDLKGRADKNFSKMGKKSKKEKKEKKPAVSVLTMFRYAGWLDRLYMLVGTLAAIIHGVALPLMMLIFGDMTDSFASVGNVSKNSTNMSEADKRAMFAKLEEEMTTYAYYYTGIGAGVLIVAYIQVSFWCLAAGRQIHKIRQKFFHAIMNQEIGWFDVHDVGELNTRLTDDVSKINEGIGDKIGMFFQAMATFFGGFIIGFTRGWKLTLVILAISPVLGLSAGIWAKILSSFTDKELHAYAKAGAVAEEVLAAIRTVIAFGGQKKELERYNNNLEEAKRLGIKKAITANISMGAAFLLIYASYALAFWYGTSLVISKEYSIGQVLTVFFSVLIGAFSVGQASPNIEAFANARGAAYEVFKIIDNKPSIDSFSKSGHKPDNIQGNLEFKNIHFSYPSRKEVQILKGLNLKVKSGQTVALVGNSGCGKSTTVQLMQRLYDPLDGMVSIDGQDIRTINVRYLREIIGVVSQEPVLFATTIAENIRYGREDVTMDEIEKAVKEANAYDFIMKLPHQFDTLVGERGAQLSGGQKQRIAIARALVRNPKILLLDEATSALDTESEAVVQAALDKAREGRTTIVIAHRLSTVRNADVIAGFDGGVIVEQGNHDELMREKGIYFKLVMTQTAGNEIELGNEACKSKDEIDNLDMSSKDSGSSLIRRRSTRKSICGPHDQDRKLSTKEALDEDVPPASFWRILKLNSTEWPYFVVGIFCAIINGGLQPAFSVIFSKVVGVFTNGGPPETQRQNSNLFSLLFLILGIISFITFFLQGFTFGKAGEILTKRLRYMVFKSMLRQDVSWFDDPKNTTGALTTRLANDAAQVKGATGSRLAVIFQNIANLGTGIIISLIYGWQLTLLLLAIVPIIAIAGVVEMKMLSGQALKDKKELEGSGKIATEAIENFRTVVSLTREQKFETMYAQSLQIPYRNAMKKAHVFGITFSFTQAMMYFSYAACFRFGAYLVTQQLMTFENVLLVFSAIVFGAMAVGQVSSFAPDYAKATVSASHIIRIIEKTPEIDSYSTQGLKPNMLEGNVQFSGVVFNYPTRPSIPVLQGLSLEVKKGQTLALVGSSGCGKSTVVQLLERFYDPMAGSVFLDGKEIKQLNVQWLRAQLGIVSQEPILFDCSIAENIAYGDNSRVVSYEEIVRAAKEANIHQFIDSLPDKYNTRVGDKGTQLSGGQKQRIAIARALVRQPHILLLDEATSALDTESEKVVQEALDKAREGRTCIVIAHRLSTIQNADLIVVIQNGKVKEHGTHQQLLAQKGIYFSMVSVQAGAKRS

Substance	Km [1]	Vmax [1]	Km [2]	Vmax [2]
human MDR1 (Homo sapiens)	91.5 µM	42.2 µM/min	14.8 µM	15.6 µM/min
mouse Mdr1a (Mus musculus)	45.6 µM	32.6 µM/min	22.0 µM	
mouse Mdr1b (Mus musculus)	58.1 µM	76.1 µM/min	30.6 µM	
